Measurements published in article PMC8346283.

Biological target: AmHv1, Hv1-type proton channel of Acropora millepora, tagged with fluorescent proteins (Acropora millepora)
Assay: FRET or BRET; spectral FRET (sensitized emission of the acceptor) in HEK293 cells co-expressing mCerulean-AmHv1 (donor) and mCitrine-AmHv1 (acceptor); apparent FRET efficiency against Id/Ia from 134 cells, fitted to a model of random assembly into a dimer

With “AmHv1, Hv1-type proton channel of Acropora millepora, tagged with fluorescent proteins (natural protein)” the stoichiometry N was 2.
